What was measured:
[1] = biological target: T1, programmed cell death ligand 1 (PD-L1) on cells (UniProt Q9NZQ7 19-290, limits assumed); assay: flow cytometry on H1975 cells, FITC-labelled nanobody 1 ng/ml [b]
T1 construct: whole, on cells; H1975, A549 and MDA-MB-231 are human tumour cell lines; also called PD-L1 aAPC/CHO-K1 cells
Protocol: In this example, the procedures of flow cytometric analysis of the anti-PD-L1 nanobody are as follows. The anti-PD-L1 nanobody (1 ng/ml) was pre-stained with FITC fluorescein by Fastlink Fluorescein Labeling Kit (Abnova), the procedures were performed according to the manual instructions. […] After washing with PBS, the cells were analyzed by flow cytometry using FL1 channel.

[2] = biological target: T1, programmed cell death ligand 1 (PD-L1) …; assay: cell-based or functional assay

T1 sequence (Q9NZQ7 19-290 limits assumed): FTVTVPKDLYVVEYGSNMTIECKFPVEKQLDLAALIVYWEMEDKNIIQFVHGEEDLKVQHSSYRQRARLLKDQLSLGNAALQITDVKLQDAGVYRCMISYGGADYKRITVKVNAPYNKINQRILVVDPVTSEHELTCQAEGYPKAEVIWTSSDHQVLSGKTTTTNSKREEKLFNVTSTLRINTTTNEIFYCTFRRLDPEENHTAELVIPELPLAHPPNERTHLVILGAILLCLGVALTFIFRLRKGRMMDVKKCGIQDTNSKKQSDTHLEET

Binder	binding result [1]	EC50 (read off the curve) [2] [µg/mL]
anti-PD-L1 nanobody clone #1 (VHH, Labelled with FITC for flow cytometry; also called PD-L1 nb) VHH: HVQLVESGGGLVQPGGSLRISCAASGFTFSSRAMSWVRQAPGKGLEWVSTINSDGSNTYYSDSVKDRFTISRDNAINTLYLQLNSLKTEDTAMYYCSRCPDIYCGGQYTYRGQGTQVTVSS	binds	–
anti-PD-L1 nanobody clone #67 (VHH) VHH: QVQLVESGGGLVQPGGSLRISCAASGFTFSSRAMSWVRQAPGKGLEWVSTVNSDGSNTYYSDSVKDRFTISRDNAINTLYLQLNSLKTEDTAMYYCSRCPDIYCGGQYTYRGQGTQVTVSS	–	~3

Reference: patent US20220306746A1 (CHINA MEDICAL UNIVERSITY HOSPITAL, published 2022)
